Source: paper PMC6510816

How the values were obtained:
[1] = biological target: YAP (UniProt P46937); experiment: His-YAP Ni-NTA pull-down of Flag-14-3-3ζ IPs; conditions: reference: wild type with rERK2; sites S37
[2] = biological target: YAP (UniProt P46937); experiment: Flag-14-3-3ζ co-IP, YAP blot; conditions: reference: Flag-14-3-3ζ wild type; sites S37

| Substance | binding against the reference [1] | binding against the reference [2] |
| --- | --- | --- |
| 14-3-3ζ (from UniProt P63104) S37A with rERK2 | gained |  |
| 14-3-3ζ (from UniProt P63104) Flag-14-3-3ζ S37A |  | stronger |
